Test results as given in publication PMC3413138.
Like-named read-outs stand apart in the source and are kept apart here.

What was measured:
Assay in all cases: SPR
beta-catenin FL [1] = target: T1, beta-catenin FL (UniProt P35222 1-781)
HuR = HuR (UniProt Q15717 1-326)
beta-catenin FL [2] = target: T1, beta-catenin FL; remark: listed apart in the source
beta-catenin FL [3] = target: T1, beta-catenin FL; remark: listed apart in the source

Sequence of HuR (Q15717 whole entry): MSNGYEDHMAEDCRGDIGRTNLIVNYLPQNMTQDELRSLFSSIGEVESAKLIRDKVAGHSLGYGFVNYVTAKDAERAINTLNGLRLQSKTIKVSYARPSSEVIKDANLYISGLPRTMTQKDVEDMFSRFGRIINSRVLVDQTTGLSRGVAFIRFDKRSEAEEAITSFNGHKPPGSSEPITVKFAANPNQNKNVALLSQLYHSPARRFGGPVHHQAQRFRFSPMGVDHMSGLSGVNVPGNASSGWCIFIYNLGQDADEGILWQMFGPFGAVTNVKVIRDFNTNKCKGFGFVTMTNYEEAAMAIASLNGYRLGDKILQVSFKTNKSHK
T1 sequence (P35222 whole entry): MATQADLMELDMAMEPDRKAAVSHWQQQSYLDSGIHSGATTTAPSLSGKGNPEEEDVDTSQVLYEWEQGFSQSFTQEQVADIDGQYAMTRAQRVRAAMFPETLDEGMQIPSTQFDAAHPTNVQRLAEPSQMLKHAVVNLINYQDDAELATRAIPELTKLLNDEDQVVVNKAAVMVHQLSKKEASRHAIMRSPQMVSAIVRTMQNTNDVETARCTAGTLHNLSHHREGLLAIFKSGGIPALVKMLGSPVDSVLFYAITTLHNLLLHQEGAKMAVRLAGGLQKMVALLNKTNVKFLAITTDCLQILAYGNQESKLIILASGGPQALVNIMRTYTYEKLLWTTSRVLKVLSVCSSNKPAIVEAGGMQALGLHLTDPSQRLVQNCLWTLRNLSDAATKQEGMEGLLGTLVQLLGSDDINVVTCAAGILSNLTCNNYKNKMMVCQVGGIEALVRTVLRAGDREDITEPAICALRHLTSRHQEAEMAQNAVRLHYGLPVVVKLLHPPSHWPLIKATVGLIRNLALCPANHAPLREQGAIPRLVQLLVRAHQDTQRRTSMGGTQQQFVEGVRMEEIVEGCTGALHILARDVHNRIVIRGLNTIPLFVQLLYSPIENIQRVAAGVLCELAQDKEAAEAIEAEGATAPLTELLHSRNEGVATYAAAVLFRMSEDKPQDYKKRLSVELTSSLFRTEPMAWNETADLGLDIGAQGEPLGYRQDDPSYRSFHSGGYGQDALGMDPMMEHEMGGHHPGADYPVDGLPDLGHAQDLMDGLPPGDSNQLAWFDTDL

B1: COX-2 3'-UTR U-2 (ssRNA)
RNA: AAGUCUAAUGAUCAUAUUUAUUUAUUUAUAUGAACCAUGUCUAUUAAUUUAAUUAUUUAAUAAUAUUUAUAUUAAACUCCUUAUGUUACUUAACAUCUUCUGUAACAGAAGUCAGUACUCCUGUUGCGGAGAAAGGAGUCAUACUUGUGAAGACUUUUAUGUCACUACUCUAAAGAUUUUGCUGUUGC
What does the source list for B1?
Kd (beta-catenin FL [1]): 158 nM; Kd (HuR): 81.3 nM

B2: COX-2 3'-UTR U-4 (ssRNA)
RNA: UGUAACAGAAGUCAGUACUCCUGUUGCGGAGAAAGGAGUCAUACUUGUGAAGACUUUUAUGUCACUACUCUAAAGAUUUUGCUGUUGCUGUUAAGUUUGG
Which Kd (beta-catenin FL [2]) does the source give for B2 here?
Its Kd is 131 nM.

What about the Kd (HuR) of the same binder?
Its Kd is 3510 nM.

B3: negative control NC RNA (ssRNA)
RNA: CAUAGCUCAUUAUACCCUCCUGGGCUCAAGCAAUCCCCCUAACUCUGCCUCCCCAGUAGCUAGGACCACAGGCAUACACC
Does B3 bind (beta-catenin FL [3])?
Result: no binding

B4: COX-2 3'-UTR U-1 (ssRNA)
RNA: AAGUCUAAUGAUCAUAUUUAUUUAUUUAUAUGAACCAUGUCUAUUAAUUUAAUUAUUUAAUAAUAUUUAUAUUAAACUCCUUAUGUUACUUAACAUCUUCUGUAACAGAAGUCAGUACUCCUGUUGCGGAGAAAGGAGUCAUACUUGUGA
For B4, which Kd (HuR) is on record?
Its Kd is 33.4 nM.

B5: COX-2 3'-UTR U-3 (ssRNA)
RNA: GCGGAGAAAGGAGUCAUACUUGUGAAGACUUUUAUGUCACUACUCUAAAGAUUUUGCUGUUGCUGUUAAGUUUGGAAAACAGUUUUUAUUCUGUUUUAUAAACCAGAGAGAAAUGAGUUUUGACGUCUUUUUACUUGAAUUUCAACUUAUAUUAUAAGGACGAAAGUAAAGAUGUUUGAAUACUUAAACACUAUCACAAGAUGCCAA
B5 was tested. Which Kd (beta-catenin FL [1]) did it give?
Its Kd is 2600 nM.
